Measurements from paper PMC12827578.

Target: CTLA4-FRB*-HA (UniProt P16410)

In the case of “FLAG-FKBP-USP15 WT (from UniProt P62942 2-108) (enzyme)”, the CTLA4-FH protein level by Western blot after Dox induction of FF-USP15 WT (18 h) and A/C 500 nM (24 h) is reported as > 2 fold.
